# Experimental data: patent US7132274B2, “Method for identifying modulators of CLK-1 and UbiF activity” (priority 2003, dated 2006)
# Positions count from the first letter of the chain named. Names may count otherwise.
# B1: C. elegans clk-1: wild-type C. elegans CLK-1 (DMQ hydroxylase) expressed from pET16 in JF496 (protein)
# chain: MFRVITRGAHTAASRQALIEKIIRVDHAGELGADRIYAGQLAVLQGSSVGSVIKKMWDEEKEHLDTMERLAAKHNVPHTVFSPVFSVAAYALGVGSALLGKEGAMACTIAVEELIGQHYNDQLKELLADDPETHKELLKILTRLRDEELHHHDTGVEHDGMKAPAYSALKWIIQTGCKGAIAIAEKI
# modifications: C. elegans; C. elegans CLK-1
# notes: wild-type C. elegans CLK-1 (DMQ hydroxylase) expressed from pET16 in JF496
# B2: mclk-1: mouse clk-1 cDNA expressed in JF496 (protein, listed as Mus musculus)
# chain: MSAAGAIAAASVGRLRTGVRRPFSEYGRGLIIRCHSSGMTLDNINRAAVDRIIRVDHAGEYGANRIYAGQMAVLGRTSVGPVIQKMWDQEKNHLKKFNELMIAFRVRPTVLMPLWNVAGFALGAGTALLGKEGAMACTVAVEESIANHYNNQIRMLMEEDPEKYEELLQVIKQFRDEELEHHDTGLDHDAELAPAYALLKRIIQAGCSAAIYLSERF
# modifications: Mouse CLK-1
# notes: mouse clk-1 cDNA expressed in JF496
# B3: hclk-1: human clk-1 cDNA expressed in JF496 (protein, listed as Homo sapiens)
# chain: MSCAGAAAAPRLWRLRPGARRSLSAYGRRTSVRFRSSGMTLDNISRAAVDRIIRVDHAGEYGANRIYAGQMAVLGRTSVGPVIQKMWDQEKDHLKKFNELMVTFRVRPTVLMPLWNVLGFALGAGTALLGKEGAMACTVAVEESIAHHYNNQIRTLMEEDPEKYEELLQLIKKFRDEELEHHDIGLDHDAELAPAYAVLKSIIQAGCRVAIYLSERL
# modifications: Human CLK-1
# notes: human clk-1 cDNA expressed in JF496
# B4: E. coli UbiF: E. coli UbiF expressed from a plasmid in JF496 (protein)
# chain: MTNQPTEIAIVGGGMVGGALALGLAQHGFAVTVIEHAEPAPFVADSQPDVRISAISAASVSLLKGLGVWDAVQAMRCHPYRRLETWEWETAHVVFDAAELKLPLLGYMVENTVLQQALWQALEAHPKVTLRVPGSLIALHRHDDLQELELKGGEVIRAKLVIGADGANSQVRQMAGIGVHAWQYAQSCMLISVQCENDPGDSTWQQFTPDGPRAFLPLFDNWASLVWYDSPARIRQLQNMNMAQLQAEIAKHFPSRLGYVTPLAAGAFPLTRRHALQYVQPGLALVGDAAHTIHPLAGQGVNLGYRDVDALIDVLVNARSYGEAWASYPVLKRYQMRRMADNFIMQSGMDLFYAGFSNNLPPLRFMRNLGLMAAERAGVLKRQALKYALGL
# modifications: E. coli; ubiF wildtype allele
# notes: E. coli UbiF expressed from a plasmid in JF496
# B5: CDB 717: C. elegans CLK-1 variant, mutation Y119A (protein, UniProt P48376 9-187, looked up, variant Y119A)
# NADPH-dependent …: AHTAASRQALIEKIIRVDHAGELGADRIYAGQLAVLQGSSVGSVIKKMWDEEKEHLDTMERLAAKHNVPHTVFSPVFSVAAYALGVGSALLGKEGAMACTIAVEELIGQHANDQLKELLADDPETHKELLKILTRLRDEELHHHDTGVEHDGMKAPAYSALKWIIQTGCKGAIAIAEKI
# B6: CDB 707: C. elegans CLK-1 variant, mutation E147A (protein, UniProt P48376 9-187, looked up, variant E147A)
# NADPH-dependent …: B5 NADPH-dependent … with A111Y, E139A
# B7: CDB 691: C. elegans CLK-1 variant, mutation E147K (protein, UniProt P48376 9-187, looked up, variant E147K)
# NADPH-dependent …: B5 NADPH-dependent … with A111Y, E139K
# B8: CDB 699: C. elegans CLK-1 variant, mutation E148A (protein, UniProt P48376 9-187, looked up, variant E148A)
# NADPH-dependent …: B5 NADPH-dependent … with A111Y, E140A
# Tested on: E. coli JF496 (ubiF411)
# Test: JF496 complementation (growth rescue) assay
# Format: cell-based
# Conditions: for rescue of bacterial growth under selective condition: compared with vector pET16 control; for Activity in JF496 system: C. elegans CLK-1 variants expressed in JF496, growth rate relative to wild type CLK-1
# Text: JF496 is useful for complementation assays using eukaryotic clk-1. As with all other ubi mutants, JF496 has a weak growth in liquid culture, and cannot use succinate as a unique carbon source. These characteristics were used to develop a gain-of-function assay, where JF496 was transformed with a eukaryotic clk-1 (here from C. elegans) and then wild-type growth was identified. Transgenic E. coli ubiF (Kwon et al., 2000 FEMS Microbiol Lett, 186, 157–161), and clk-1 from proteobacteria (Stenmark et al., 2001 J Biol Chem, 276, 33297–33300) have been tested in JF496.
# Growth conditions—For complementation assays, plasmids are freshly transformed by electroporation into E. coli JF496 ubiF(DE3) and grown overnight at 37° C. in 5 mL LB with 50 μg/mL ampicillin. The cultures are diluted 1/10 and OD600 measured. A bacterial volume corresponding to an OD600 of 0.03 in 5 mL is taken, centrifuged and resuspended in 100 μl of M9 medium. It is then added into 5 mL M9 containing 1 mM MgSO4, 20 μM CaCl2, 0.5 μg/mL thiamine, 0.12% casamino acids, 40 μg/mL D-L-methionine, 100 μg/mL L-asparagine, trace metals and 50 μg/mL ampicillin. This medium is supplemented with 0.5% glucose or 0.5% succinate. E. coli JF496 is grown at 37° C. for 8 hours. Samples (700-μL) are taken at 2-hour intervals and the OD600 is measured in order to determine the growth rate.
# Growth conditions—as described above in Section 6.1
# A selection of CLK-1 variants were constructed by site-directed mutagenesis and cloned into the JF496 system to assess their enzymatic activity relative to the wild type. The respective strains of JF496-clk-1 variants were cultured as described and the growth rate of each were measured. The results as shown in Table 4 indicate that certain residues and regions are not tolerant of amino acid substitution (amino acid substitution is indicated by one-letter codes).
# [1] = JF496, M9 buffer containing 0.5% glucose
molecule,measurement,setting,value
B1,rescue of JF496 growth defect,"FIG. 6, JF496 transformed with C. elegans clk-1",able to rescue the JF496 growth defect
B2,rescue of bacterial growth under selective condition,[1],rescues bacterial growth
B3,rescuing capacity,[1],lower than that of mclk-1 or C. elegans clk-1
same,rescue of bacterial growth under selective condition,[1],rescues bacterial growth
B4,rescue of bacterial growth under selective condition,[1],rescued bacterial growth
B5,Activity in JF496 system,,Inactive
B6,Activity in JF496 system,,Active
B7,Activity in JF496 system,,Active
B8,Activity in JF496 system,,Inactive
